From US20200024360A1 (Janssen / Centocor, published 2020)

T1: recombinant cynomolgous monkey PSMA extracellular domain (ECD) protein (Macaca fascicularis, UniProt Q04609 48-750 (human entry), biotin on the Avi tag)
T1 construct: also called cyno PSMA ECD; PSMG1
T1 chain: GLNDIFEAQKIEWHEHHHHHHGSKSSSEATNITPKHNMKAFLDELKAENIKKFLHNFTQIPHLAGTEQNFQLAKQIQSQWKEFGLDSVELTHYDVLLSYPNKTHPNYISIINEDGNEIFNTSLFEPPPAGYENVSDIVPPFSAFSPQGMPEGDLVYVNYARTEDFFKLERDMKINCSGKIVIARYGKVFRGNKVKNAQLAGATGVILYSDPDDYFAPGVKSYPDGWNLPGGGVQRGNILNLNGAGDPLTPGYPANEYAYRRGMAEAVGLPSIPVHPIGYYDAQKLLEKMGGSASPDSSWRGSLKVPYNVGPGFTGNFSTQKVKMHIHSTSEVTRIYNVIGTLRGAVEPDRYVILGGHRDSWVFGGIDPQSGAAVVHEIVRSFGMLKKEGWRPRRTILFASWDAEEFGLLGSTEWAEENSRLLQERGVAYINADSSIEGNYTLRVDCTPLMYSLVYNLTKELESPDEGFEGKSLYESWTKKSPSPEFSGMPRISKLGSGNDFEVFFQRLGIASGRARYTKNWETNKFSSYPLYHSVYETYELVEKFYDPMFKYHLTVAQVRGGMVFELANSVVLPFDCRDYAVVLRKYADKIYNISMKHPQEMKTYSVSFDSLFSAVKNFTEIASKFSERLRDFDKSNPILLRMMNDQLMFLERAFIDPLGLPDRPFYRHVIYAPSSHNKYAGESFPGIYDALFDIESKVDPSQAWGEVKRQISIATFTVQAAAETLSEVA

T2: chimpanzee PSMA, full length (Pan troglodytes, UniProt Q04609 1-750 (human entry))
T2 construct: On transfected HEK293F cells; also called chimp PSMA; H2Q3K5_PANTR
T2 chain: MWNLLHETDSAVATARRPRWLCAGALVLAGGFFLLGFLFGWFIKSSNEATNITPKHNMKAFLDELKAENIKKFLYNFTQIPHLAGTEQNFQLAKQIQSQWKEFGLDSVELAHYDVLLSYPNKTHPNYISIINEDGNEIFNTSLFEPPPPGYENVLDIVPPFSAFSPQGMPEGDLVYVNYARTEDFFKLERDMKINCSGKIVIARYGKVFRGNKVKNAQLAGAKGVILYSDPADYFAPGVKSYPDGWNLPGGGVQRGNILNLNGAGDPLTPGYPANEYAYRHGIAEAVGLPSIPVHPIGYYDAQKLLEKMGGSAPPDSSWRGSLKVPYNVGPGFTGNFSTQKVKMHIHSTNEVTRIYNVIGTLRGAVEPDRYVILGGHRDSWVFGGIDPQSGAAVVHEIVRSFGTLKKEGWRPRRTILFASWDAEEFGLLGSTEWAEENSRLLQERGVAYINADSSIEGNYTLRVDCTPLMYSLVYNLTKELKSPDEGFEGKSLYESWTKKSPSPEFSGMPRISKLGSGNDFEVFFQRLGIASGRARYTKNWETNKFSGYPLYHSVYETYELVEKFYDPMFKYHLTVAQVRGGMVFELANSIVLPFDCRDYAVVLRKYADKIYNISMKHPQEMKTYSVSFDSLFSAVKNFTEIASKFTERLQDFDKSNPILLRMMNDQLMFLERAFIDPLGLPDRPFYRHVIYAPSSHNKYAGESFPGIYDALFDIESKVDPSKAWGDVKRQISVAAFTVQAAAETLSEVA

B1: PS3B27 (bispecific antibody, human IgG4 S228P, kappa, lambda, F234A L235A)
heavy 1: not shown
light 1: not shown
heavy 2: EVQLVESGGGLVQPGGSLRLSCAASGFTFNTYAMNWVRQAPGKGLEWVARIRSKYNNYATYYAASVKGRFTISRDDSKNSLYLQMNSLKTEDTAVYYCARHGNFGNSYVSWFAYWGQGTLVTVSSASTKGPSVFPLAPCSRSTSESTAALGCLVKDYFPEPVTVSWNSGALTSGVHTFPAVLQSSGLYSLSSVVTVPSSSLGTKTYTCNVDHKPSNTKVDKRVESKYGPPCPPCPAPEAAGGPSVFLFPPKPKDTLMISRTPEVTCVVVDVSQEDPEVQFNWYVDGVEVHNAKTKPREEQFNSTYRVVSVLTVLHQDWLNGKEYKCKVSNKGLPSSIEKTISKAKGQPREPQVYTLPPSQEEMTKNQVSLTCLVKGFYPSDIAVEWESNGQPENNYKTTPPVLDSDGSFLLYSKLTVDKSRWQEGNVFSCSVMHEALHNHYTQKSLSLSLGK
light 2: QTVVTQEPSLTVSPGGTVTLTCRSSTGAVTTSNYANWVQQKPGQAPRGLIGGTNKRAPGTPARFSGSLLGGKAALTLSGVQPEDEAEYYCALWYSNLWVFGGGTKLTVLGQPKAAPSVTLFPPSSEELQANKATLVCLISDFYPGAVTVAWKADSSPVKAGVETTTPSKQSNNKYAASSYLSLTPEQWKSHRSYSCQVTHEGSTVEKTVAPTECS
notes: IgG4 PAA; PSMA arm chains first, then CD3 arm (F405L, R409K); also called PSMB127 x CD3B219; PS2B27
B2: PS3B28 (bispecific antibody, human IgG4 S228P, kappa, lambda, F234A L235A)
heavy 1: not shown
light 1: not shown
heavy 2: EVQLVESGGGLVQPGGSLRLSCAASGFTFNTYAMNWVRQAPGKGLEWVARIRSKYNNYATYYAASVKGRFTISRDDSKNSLYLQMNSLKTEDTAVYYCARHGNFGNSYVSWFAYWGQGTLVTVSSASTKGPSVFPLAPCSRSTSESTAALGCLVKDYFPEPVTVSWNSGALTSGVHTFPAVLQSSGLYSLSSVVTVPSSSLGTKTYTCNVDHKPSNTKVDKRVESKYGPPCPPCPAPEAAGGPSVFLFPPKPKDTLMISRTPEVTCVVVDVSQEDPEVQFNWYVDGVEVHNAKTKPREEQFNSTYRVVSVLTVLHQDWLNGKEYKCKVSNKGLPSSIEKTISKAKGQPREPQVYTLPPSQEEMTKNQVSLTCLVKGFYPSDIAVEWESNGQPENNYKTTPPVLDSDGSFLLYSKLTVDKSRWQEGNVFSCSVMHEALHNHYTQKSLSLSLGK
light 2: QTVVTQEPSLTVSPGGTVTLTCRSSTGAVTTSNYANWVQQKPGQAPRGLIGGTNKRAPGTPARFSGSLLGGKAALTLSGVQPEDEAEYYCALWYSNLWVFGGGTKLTVLGQPKAAPSVTLFPPSSEELQANKATLVCLISDFYPGAVTVAWKADSSPVKAGVETTTPSKQSNNKYAASSYLSLTPEQWKSHRSYSCQVTHEGSTVEKTVAPTECS
notes: IgG4 PAA; PSMA arm chains first, then CD3 arm (F405L, R409K); also called PSMB128 x CD3B219
B3: PS3B25 (bispecific antibody, human IgG4 S228P, kappa, lambda, F234A L235A)
heavy 1: not shown
light 1: not shown
heavy 2: EVQLVESGGGLVQPGGSLRLSCAASGFTFNTYAMNWVRQAPGKGLEWVARIRSKYNNYATYYAASVKGRFTISRDDSKNSLYLQMNSLKTEDTAVYYCARHGNFGNSYVSWFAYWGQGTLVTVSSASTKGPSVFPLAPCSRSTSESTAALGCLVKDYFPEPVTVSWNSGALTSGVHTFPAVLQSSGLYSLSSVVTVPSSSLGTKTYTCNVDHKPSNTKVDKRVESKYGPPCPPCPAPEAAGGPSVFLFPPKPKDTLMISRTPEVTCVVVDVSQEDPEVQFNWYVDGVEVHNAKTKPREEQFNSTYRVVSVLTVLHQDWLNGKEYKCKVSNKGLPSSIEKTISKAKGQPREPQVYTLPPSQEEMTKNQVSLTCLVKGFYPSDIAVEWESNGQPENNYKTTPPVLDSDGSFLLYSKLTVDKSRWQEGNVFSCSVMHEALHNHYTQKSLSLSLGK
light 2: QTVVTQEPSLTVSPGGTVTLTCRSSTGAVTTSNYANWVQQKPGQAPRGLIGGTNKRAPGTPARFSGSLLGGKAALTLSGVQPEDEAEYYCALWYSNLWVFGGGTKLTVLGQPKAAPSVTLFPPSSEELQANKATLVCLISDFYPGAVTVAWKADSSPVKAGVETTTPSKQSNNKYAASSYLSLTPEQWKSHRSYSCQVTHEGSTVEKTVAPTECS
notes: IgG4 PAA; also called PSMB87 x CD3B219

Experiments:
[1] = molecular target: T3, recombinant human PSMA extracellular domain (ECD) protein (human, UniProt Q04609 44-750); assay: SPR ProteOn, bsAb captured by anti-Fc
T3 construct: also called human PSMA ECD

[2] = molecular target: T1, recombinant cynomolgous monkey PSMA …; assay: SPR ProteOn, bsAb captured by anti-Fc
[3] = molecular target: T4, human PSMA (prostate specific membrane antigen), full length (human, UniProt Q04609 1-750); assay: FACS, whole cell binding, LNCaP; calculated EC50
T4 construct: On LNCaP or C4-2B cells (endogenous) or transduced HEK293F cells; also called FOLH1_HUMAN; hPSMA
Description: (§1) PSMA×CD3 bispecific antibodies were tested for binding to PSMA positive cell lines LNCAP, human PSMA-HEK, Chimpanzee-PSMA-HEK and Cynomolgous monkey PSMA-HEK. To assess the binding capabilities of the PSMA bispecific antibodies, the cell-binding assay was utilized (described previously). Briefly, PSMA expressing tumor cells are bound by bispecific antibodies at known concentrations and the bound antibody is detected by an anti-human kappa light chain PE conjugated detection reagent (Invitrogen). The Mean Fluorescents Intensity (MFI) is the measure of bound bispecific antibody. The MFI is converted to a relative EC₅₀. EC₅₀ is a commonly used dose-response curve, where the half maximal effective concentration or the EC₅₀ point is defined as the inflection point of the curve. EC₅₀ s were determined by measuring cell bound bispecific and known concentrations. […] The dose response curves were then diluted down to that of background or no bispecific binding. The inflection point of this curve reflects the EC₅₀ point. The calculated EC₅₀ is determined by taking the ug/ml amount of bispecific antibody at the EC₅₀ point and converting it to a molarity value based on the MW of the bispecific antibody. Bispecific antibodies were normalized for protein concentration and then incubated with the same number of cells expressing either human or cyno PSMA. The MFI at each concentration was collected by flow cytometry and plotted as a function of concentration. Data was transformed via log 10 and then plotted. Nonlinear regression of binding curves was done to determine EC₅₀ s. These relative values were used for ranking PSMA binding to target cells.

[4] = molecular target: T2, chimpanzee PSMA, full length; assay: FACS, whole cell binding, chimp PSMA HEK; calculated EC50
Description: as §1

Binder	Kd [1] [nM]	koff [1] [s⁻¹]	kon [1] [M⁻¹ s⁻¹]	Kd [2] [nM]	koff [2] [s⁻¹]	kon [2] [M⁻¹ s⁻¹]	EC50 [3] [nM]	EC50 [4] [nM]
B1	10.3	0.00289	287000	7	0.0011	159000	14.6	22.8
B2	–	–	–	–	–	–	8.1	7.08
B3	5.38	0.00101	188000	81.1	0.00797	98000	–	–
